Experimental data as given in article PMC8931120, “LC3B is an RNA-binding protein to trigger rapid mRNA degradation during autophagy”.

Columns and labels:
LC3B-R/Q = LC3B-R/Q (human, UniProt Q9GZQ8 1-120, R68Q;R69Q;R70Q); assay: EMSA; 1 mM Mg2+, 2 uM probe; EMSA: 40 mM Tris pH 8.0, 30 mM KCl, 1 mM MgCl2, 0.01% NP-40, 1 mM DTT, 30 C 1 h; FP: same buffer without NP-40, 100 nM RNA final (200 nM stock diluted 1:2), pro
[1] = molecular target: LC3B-WT (mature, cleaved by ATG4B) (human, UniProt Q9GZQ8 1-120); assay: as above

## AAUAAAAAUAAAAAUAAA (ssRNA) [Cy5-AAUAAAx3]
LC3B-R/Q
  binding result: no binding
[1]
  binding result: binds
